Test results taken from doi:10.64898/2025.12.21.695763.

Target: Mycobacterium thermoresistibile (Mth) Class Ib ribonucleotide reductase catalytic α-subunit (NrdE), purified alone (M. thermoresistibile)
Experiment: SEC-MALS

## Mycobacterium thermoresistibile (Mth) Class Ib ribonucleotide reductase catalytic α-subunit (NrdE), purified alone (enzyme)
  stoichiometry N: 2
